In one assay the target is HLA-B*18:01. The experiment in a line: IEDB peptide-MHC binding, purified MHC/direct/fluorescence; filed as Kd, often an IC50 or EC50 that approximates it; ≥ and ≤ were set here for values at or beyond the usual limits of such assays.
The target of assay [1] is HLA-A*02:03. Described as above. The conditions noted are these: source organism: Burkholderia mallei ATCC 23344.
The next assay has as its target HLA-B*46:01. Described as above.
For another assay, the target named is HLA-A*03:01. The description is as above.
Another assay addresses HLA-B*27:03. Described as above.
In a further assay the target is HLA-A*24:03. The description is as above. The conditions noted are these: source organism: Burkholderia mallei ATCC 23344.
In another assay the target is HLA-A*02:12. The description is as above.
The target in a further assay is HLA-B*15:01. The description is as above.
The next assay addresses HLA-A*02:11. The assay is described as above.
The target in a further assay is HLA-B*51:01. The description is as above.
The target of another assay is HLA-A*02:01. Described as above.
For a further assay, the target named is HLA-B*39:01. The assay is described as above.
For a further assay, the target named is HLA-A*02:16. Described as above.
The next assay deals with HLA-A*26:01. Described as above.
The next assay addresses HLA-A*68:02. Described as above.
The target in another assay is HLA-A*69:01. The description is as above.
A further assay addresses HLA-A*02:19. The description is as above.
Assay [2] deals with HLA-B*73:01. The assay is described as follows: IEDB peptide-MHC binding, purified MHC/competitive/fluorescence; filed as Kd, often an IC50 or EC50 that approximates it; ≥ and ≤ were set here for values at or beyond the usual limits of such assays. The conditions noted are these: source organism: Escherichia coli O157:H7 str. Sakai.
The target in assay [3] is HLA-B*73:01. The experiment in a line: IEDB peptide-MHC binding, purified MHC/direct/fluorescence; filed as Kd, often an IC50 or EC50 that approximates it; ≥ and ≤ were set here for values at or beyond the usual limits of such assays. The conditions noted are these: source organism: Brucella suis 1330.
Assay [4] deals with HLA-B*48:01. The description is as above. The conditions noted are these: source organism: Brucella abortus 2308.
The target of the next assay is HLA-B*08:01. Described as above. The conditions noted are these: source organism: Brucella suis 1330.
The target in another assay is HLA-B*58:01. Described as above. The conditions noted are these: source organism: Brucella abortus 2308.
Another assay concerns the target HLA-B*27:05. The assay is described as above. The conditions noted are these: source organism: Brucella abortus 2308.
Another assay addresses HLA-B*15:17. The assay is described as above. The conditions noted are these: source organism: Brucella abortus 2308.
The next assay concerns the target HLA-A*01:01. Described as above. The conditions noted are these: source organism: Brucella abortus 2308.
For a further assay, the target named is HLA-B*57:01. The assay is described as above.
For another assay, the target named is HLA-B*07:02. The description is as above. The conditions noted are these: source organism: Brucella abortus 2308.
For assay [5], the target named is HLA-A*02:03. The assay is described as follows: IEDB peptide-MHC binding, purified MHC/competitive/fluorescence; filed as Kd, often an IC50 or EC50 that approximates it; ≥ and ≤ were set here for values at or beyond the usual limits of such assays. The conditions noted are these: source organism: Brucella abortus S19.
For the next assay, the target named is HLA-A*26:03. The description is as above. The conditions noted are these: source organism: Brucella abortus S19.
The target in a further assay is HLA-A*11:01. Described as above. The conditions noted are these: source organism: Brucella abortus S19.
The target of another assay is HLA-A*31:01. Described as above. The conditions noted are these: source organism: Brucella abortus S19.
In the next assay the target is HLA-B*45:06. The description is as above. The conditions noted are these: source organism: Burkholderia pseudomallei S13.
For a further assay, the target named is HLA-B*15:42. The description is as above. The conditions noted are these: source organism: Burkholderia pseudomallei S13.
For another assay, the target named is HLA-C*04:01. Described as above. The conditions noted are these: source organism: Burkholderia pseudomallei S13.
The target in the next assay is HLA-B*83:01. The assay is described as above. The conditions noted are these: source organism: Burkholderia pseudomallei S13.
For another assay, the target named is HLA-A*23:01. The assay is described as above. The conditions noted are these: source organism: Burkholderia pseudomallei S13.
Another assay concerns the target HLA-A*68:01. The experiment in a line: IEDB peptide-MHC binding, purified MHC/competitive/radioactivity; ≥ and ≤ were set here for values at or beyond the usual limits of such assays. The conditions noted are these: source organism: Hepacivirus hominis.
Assay [6] has as its target HLA-B*48:01. The experiment in a line: IEDB peptide-MHC binding, purified MHC/competitive/fluorescence; filed as Kd, often an IC50 or EC50 that approximates it; ≥ and ≤ were set here for values at or beyond the usual limits of such assays. The conditions noted are these: source organism: Mycobacterium tuberculosis variant bovis BCG str. Pasteur 1173P2.
The target in a further assay is HLA-A*24:02. The assay is described as follows: IEDB peptide-MHC binding, cellular MHC/competitive/fluorescence; ≥ and ≤ were set here for values at or beyond the usual limits of such assays. The conditions noted are these: source organism: Human herpesvirus 5 strain AD169.
Setting [7] is: source organism: Burkholderia mallei ATCC 23344.
Where [8] appears, read: source organism: Brucella abortus 2308.
The mark [9] stands for this setting: source organism: Mycobacterium tuberculosis str. Haarlem.

A value given as a limit tells only on which side of the number the result lay.

For orientation: Kd means the concentration at which binding is half-saturated. A lower Kd goes with tighter binding. As for LARFPCNVI, the Kd with HLA-B*18:01 (setting [7]), with HLA-A*02:03 [1], with HLA-B*46:01 (setting [7]), with HLA-A*03:01 (setting [7]), with HLA-B*27:03 (setting [7]) and with HLA-A*24:03 was not below 20 µM each time. Besides, the Kd with HLA-A*02:12 (setting [7]) was not below 20 µM; with HLA-B*15:01 (setting [7]), not below 20 µM; with HLA-A*02:11 (setting [7]) it was not below 20 µM; in the assay with HLA-B*51:01 (setting [7]) it was 0.606 µM; with HLA-A*02:01 (setting [7]), not below 20 µM; with HLA-B*39:01 (setting [7]), not below 20 µM. Besides, the Kd with HLA-A*02:16 (setting [7]), with HLA-A*26:01 (setting [7]), with HLA-A*68:02 (setting [7]), with HLA-A*69:01 (setting [7]) and with HLA-A*02:19 (setting [7]) was not below 20 µM each time.

NEWYVQPQA yielded a Kd in the assay with HLA-B*73:01 [2] of 0.0673 µM.

Take RMIESRMSK: the Kd with HLA-B*18:01 (setting [8]) was not below 20 µM; with HLA-B*73:01 [3] it was not below 20 µM; in the assay with HLA-A*03:01 (setting [8]), 0.131 µM; in the assay with HLA-B*48:01 [4], not below 20 µM; in the assay with HLA-B*15:01 (setting [8]), 0.341 µM; with HLA-B*08:01, not below 20 µM. Besides, the Kd in the assay with HLA-B*58:01 was not below 20 µM; with HLA-B*27:05 it was 0.0525 µM; with HLA-B*15:17 it was not below 20 µM; in the assay with HLA-A*02:01 (setting [8]) it was not below 20 µM; with HLA-B*39:01 (source organism: Brucella suis 1330) it was not below 20 µM; with HLA-A*01:01, not below 20 µM. Further, the Kd in the assay with HLA-B*57:01 (setting [8]), with HLA-B*07:02, in the assay with HLA-A*68:02 (setting [8]), with HLA-A*69:01 (setting [8]), with HLA-A*02:03 [5] and with HLA-A*26:03 was not below 20 µM in each case. The figures for the Kd with HLA-A*11:01 and in the assay with HLA-A*31:01 were 0.0055 µM and 0.0607 µM, respectively.

Consider GFYLSGHLF, for which the Kd with HLA-B*45:06 was not below 5 µM; with HLA-B*15:42 it was not below 5 µM; in the assay with HLA-C*04:01, not below 5 µM; with HLA-B*83:01, not below 5 µM; with HLA-A*23:01 it was not above 0.0001 µM.

A word on the IC50: it is the concentration at which inhibition is half-maximal. As for QLFTFSPRR, the IC50 with HLA-A*68:01 is 0.0026 µM.

Sequence RMVIGGVAL had a Kd with HLA-B*48:01 [6] of 0.0681 µM. This lies in the double-digit nanomolar range.

Consider RLGWRTLDF, for which the Kd with HLA-B*18:01 (setting [9]), with HLA-B*46:01 (setting [9]), with HLA-A*03:01 (setting [9]), with HLA-B*27:03 (setting [9]), with HLA-A*02:12 (setting [9]) and in the assay with HLA-A*02:11 (setting [9]) was not below 20 µM in each case. For the same sequence, the Kd in the assay with HLA-B*51:01 (setting [9]), with HLA-A*02:01 (setting [9]), in the assay with HLA-B*39:01 (setting [9]), with HLA-B*57:01 (setting [9]), with HLA-A*02:16 (setting [9]) and in the assay with HLA-A*26:01 (setting [9]) was not below 20 µM each time. The Kd with HLA-A*02:19 (setting [9]) is not below 20 µM.

Sequence VYYTSAFVF yielded an IC50 in the assay with HLA-A*24:02 of 35 µM.

Source of the values: the Immune Epitope Database (IEDB).
